Source: patent publication US20170072032A1

Columns and labels:
[1] = molecular target: recombinant mouse FcRn, biotinylated, immobilized on sensor chip (mouse) (UniProt Q61559); experiment: SPR (Biacore), immobilized biotinylated mouse FcRn, analyte 0.78-100 nM, pH 5.4; Chi2 10.1
[2] = molecular target: recombinant mouse FcRn, biotinylated, immobilized on sensor chip (mouse) (UniProt Q61559); experiment: SPR (Biacore), immobilized biotinylated mouse FcRn, analyte 0.78-100 nM, pH 6.4; Chi2 0.3
[3] = molecular target: recombinant mouse FcRn, biotinylated, immobilized on sensor chip (mouse) (UniProt Q61559); experiment: SPR (Biacore), immobilized biotinylated mouse FcRn, analyte 0.78-100 nM, pH 6.4; Chi2 3.9
[4] = molecular target: recombinant mouse FcRn, biotinylated, immobilized on sensor chip (mouse) (UniProt Q61559); experiment: SPR (Biacore), immobilized biotinylated mouse FcRn, analyte 0.78-100 nM, pH 5.4; Chi2 2.5
[5] = molecular target: recombinant human FcRn, biotinylated, immobilized on sensor chip (human) (UniProt P55899); experiment: SPR (Biacore 2000), biotinylated human FcRn immobilized, analyte 0.78-200 nM, pH 5.4, 25 C, Langmuir fit with drifting baseline
Sequence of UniProt P55899 (P55899 24-297 limits assumed, form in doubt, chain 1 of 2): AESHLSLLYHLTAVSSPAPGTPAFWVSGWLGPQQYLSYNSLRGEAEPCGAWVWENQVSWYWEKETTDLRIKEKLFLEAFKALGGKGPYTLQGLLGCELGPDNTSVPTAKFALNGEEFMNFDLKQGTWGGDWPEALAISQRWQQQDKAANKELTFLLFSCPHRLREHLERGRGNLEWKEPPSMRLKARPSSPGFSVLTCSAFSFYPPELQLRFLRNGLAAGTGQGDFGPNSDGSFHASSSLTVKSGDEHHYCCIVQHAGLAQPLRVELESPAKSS
Sequence of UniProt P55899 (chain, as listed by the source limits assumed, form in doubt, chain 2 of 2): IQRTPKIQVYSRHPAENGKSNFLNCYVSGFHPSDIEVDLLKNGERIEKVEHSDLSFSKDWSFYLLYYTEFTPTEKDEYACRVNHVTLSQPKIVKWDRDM

[6] = molecular target: recombinant mouse FcRn, biotinylated, immobilized on sensor chip (mouse) (UniProt Q61559); experiment: SPR (Biacore 2000), biotinylated mouse FcRn immobilized, analyte 0.78-200 nM, pH 5.4, 25 C, Langmuir fit with drifting baseline
[7] = molecular target: neonatal Fc receptor (FcRn), endogenous mouse receptor in placenta / syncytiotrophoblast cells (mouse) (UniProt Q61559); experiment: cell-based or functional assay

Work on “A2Fc (A2 domain of FVIII fused to mouse Fc gamma 1) (from UniProt P00451 392-759) (Fc fusion)” yielded a Kd [1] of 8.53 nM, a koff [1] of 0.00218 s⁻¹ and a kon [1] of 256000 M⁻¹ s⁻¹. For the same substance, the Kd [2] was 52.9 nM, the koff [2] was 0.0016 s⁻¹ and the kon [2] was 30000 M⁻¹ s⁻¹.

“C2Fc (C2 domain of FVIII fused to mouse Fc gamma 1) (from UniProt P00451 2192-2351) (Fc fusion)” gave a Kd [3] of 53 nM, a koff [3] of 0.00347 s⁻¹ and a kon [3] of 65000 M⁻¹ s⁻¹. It also gave a Kd [4] of 3.7 nM, a koff [4] of 0.0011 s⁻¹ and a kon [4] of 292000 M⁻¹ s⁻¹.

“PPI2-Fc fusion protein (mouse preproinsulin 2 fused to the CH2-CH3 Fc domain of human IgG1) (from UniProt P01326 25-110)” showed a Kd [5] of 15.3 nM, a koff [5] of 0.00318 s⁻¹ and a kon [5] of 208000 M⁻¹ s⁻¹. The Kd [6] was 5.4 nM, the koff [6] was 0.00159 s⁻¹ and the kon [6] was 292000 M⁻¹ s⁻¹.

“anti-CD20 rituximab monoclonal antibody (Roche), used as human IgG1 control” gave a Kd [5] of 6.4 nM, a koff [5] of 0.00492 s⁻¹ and a kon [5] of 765000 M⁻¹ s⁻¹. For the same substance, the Kd [6] was 1.5 nM, the koff [6] was 0.00248 s⁻¹ and the kon [6] was 1.63e+06 M⁻¹ s⁻¹. The diabetes-free offspring after IgG pre-treatment of pregnant mice 24 h before PPI-Fc (% diabetes-free mice) [7] was 49.
